pKd: −log10 of the molar value.
Legend:
Aβ1-42 fibrils (human) = experiment: SPR, Biacore T200; Aβ1-42 fibrils amine-coupled to CM5 chip, antibody flowed over
Aβ1-42 monomer (human) = experiment: SPR, Biacore T200; IgG captured on Protein A chip, Aβ1-42 monomer flowed over
Sequence of Aβ1-42 monomer (human) (peptide, as listed by the source): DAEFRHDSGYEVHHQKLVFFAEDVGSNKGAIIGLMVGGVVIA

Sequence of Aβ1-42 fibrils (human) (peptide, as listed by the source): as above

Aducanumab (antibody)
pKd (Aβ1-42 fibrils (human)): 7.12
pKd (Aβ1-42 monomer (human)): 5.49

— patent US20210371506A1
